Experimental data published in PMC4975007.

Biological target: Dbp2 (MBP-TEV-Dbp2 construct) (Saccharomyces cerevisiae, UniProt P24783 1-546)
Assay: fluorescence anisotropy

Dbp2 (MBP-TEV-Dbp2 construct), sequence (P24783 whole entry): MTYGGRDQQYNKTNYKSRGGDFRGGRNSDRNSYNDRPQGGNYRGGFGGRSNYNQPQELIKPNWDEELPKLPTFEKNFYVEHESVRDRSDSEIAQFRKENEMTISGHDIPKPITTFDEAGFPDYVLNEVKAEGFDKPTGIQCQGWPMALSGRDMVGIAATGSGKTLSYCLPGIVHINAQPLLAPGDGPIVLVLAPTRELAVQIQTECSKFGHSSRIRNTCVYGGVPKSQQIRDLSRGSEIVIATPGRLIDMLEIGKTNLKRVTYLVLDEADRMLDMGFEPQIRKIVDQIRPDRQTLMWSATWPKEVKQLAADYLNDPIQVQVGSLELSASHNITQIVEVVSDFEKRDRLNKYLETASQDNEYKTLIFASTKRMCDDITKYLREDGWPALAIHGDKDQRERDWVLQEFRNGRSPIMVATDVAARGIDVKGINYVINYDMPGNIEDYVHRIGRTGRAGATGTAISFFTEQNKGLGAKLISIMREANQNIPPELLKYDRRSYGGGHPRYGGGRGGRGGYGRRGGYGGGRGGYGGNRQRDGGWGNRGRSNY

## AGCACCGUAAAGACGC (ssRNA) [16 nt ssRNA, 6-FAM]
  Kd: 38 nM
